Source: the PETadex activity labels (doi:10.3390/molecules28083528)
Residue numbers refer to the chain shown, from its start.

B1: unnamed (protein)
chain: MAVGSMLLSMAAQAQVVVFEETFSTGLGKFTAAGSVVTSSGAARLDGCYGCTDGSITSTAISTVDFTGLRLSFDRVTSGLDSGEAGIAEFSTNGSTYTAVESIRTASGRVTFNLPTSAENQSGLRLRFRINASLSSETYTVDNIRLEGTSGSGGGTTNPFEKGPDPTKTMLEASTGPFTYTTTTVSSTTASGYRQGTIYHCTNVTGPFAAVAVVPGYLASQSSINWWGPRLASHGFVVITIDTNSTSDQPPSRATQLMAALNQLKTFSNTSSHPIYRKVDPNRLGVMGWSMGGGGTLIAARDNPTLKAAIPFAPWNSSTNFSTVSVPTLIIACESDSTAPVNSHASPFYNSLPSTTKKAYLEMNNGSHSCANSGNSNAGLIGKYGVSWMKCFMDNDTRFSPYLCGAPHQADLSLTAIDEYRENCPY
B2: unnamed (protein)
chain: B1 chain with C201P, C391R
B3: unnamed (protein)
chain: B1 chain with C201P, N364C, C391R, D411C

Substrate: BHET
Test: Proxy for plastic degradation [Released monomer concentration (HPLC/LC-MS) (TPA+MHET)]
Conditions: pH 7; 30 °C

Protein | Proxy for plastic degradation
B1 | 19.1 µM
B3 | 28.8 µM

Same assay, conditions: pH 7; 40 °C

Protein | Proxy for plastic degradation
B1 | 19.5 µM
B3 | 31.2 µM

Same assay, conditions: pH 7; 50 °C

Protein | Proxy for plastic degradation
B1 | 20.2 µM
B3 | 37.6 µM

Same assay, conditions: pH 9; 30 °C

Protein | Proxy for plastic degradation
B1 | 19.6 µM
B3 | 28.9 µM

Same assay, conditions: pH 9; 40 °C

Protein | Proxy for plastic degradation
B1 | 37.1 µM
B3 | 43.2 µM

Same assay, conditions: pH 9; 50 °C

Protein | Proxy for plastic degradation
B1 | 55 µM
B3 | 66.1 µM

Substrate: PET
Test: Proxy for plastic degradation [Released monomer concentration (HPLC/LC-MS) (MHET+TPA)]
Conditions: pH 9; 30 °C; 1 h

Protein | Proxy for plastic degradation
B1 | 2.3 µM
B3 | 12.1 µM

Same assay, conditions: pH 9; 30 °C; 2 h

Protein | Proxy for plastic degradation
B1 | 3.8 µM
B3 | 22.4 µM

Same assay, conditions: pH 9; 30 °C; 3 h

Protein | Proxy for plastic degradation
B1 | 1.6 µM
B3 | 33.3 µM

Same assay, conditions: pH 9; 30 °C; 4 h

Protein | Proxy for plastic degradation
B1 | 5.4 µM
B3 | 44.1 µM

Same assay, conditions: pH 9; 30 °C; 5 h

Protein | Proxy for plastic degradation
B1 | 4.6 µM
B3 | 64.8 µM

Same assay, conditions: pH 9; 30 °C; 6 h

Protein | Proxy for plastic degradation
B1 | 4.9 µM
B3 | 72.1 µM

Same assay, conditions: pH 9; 40 °C; 1 h

Protein | Proxy for plastic degradation
B1 | 0.84 µM
B3 | 24.3 µM

Same assay, conditions: pH 9; 40 °C; 2 h

Protein | Proxy for plastic degradation
B1 | 3 µM
B3 | 43.4 µM

Same assay, conditions: pH 9; 40 °C; 3 h

Protein | Proxy for plastic degradation
B1 | 4.3 µM
B3 | 59.5 µM

Same assay, conditions: pH 9; 40 °C; 4 h

Protein | Proxy for plastic degradation
B1 | 8.2 µM
B3 | 58 µM

Same assay, conditions: pH 9; 40 °C; 5 h

Protein | Proxy for plastic degradation
B1 | 8 µM
B3 | 101 µM

Same assay, conditions: pH 9; 40 °C; 6 h

Protein | Proxy for plastic degradation
B1 | 9.8 µM
B3 | 104 µM

Substrate: PET
Test: Proxy for plastic degradation [Released monomer concentration (HPLC/LC-MS) (Not Mentioned)]
Conditions: pH 9; 1 h

Protein | Proxy for plastic degradation
B1 | 2.3 µM
B2 | 6 µM

Same assay, conditions: pH 9; 2 h

Protein | Proxy for plastic degradation
B1 | 3.8 µM
B2 | 8.6 µM

Same assay, conditions: pH 9; 3 h

Protein | Proxy for plastic degradation
B1 | 1.6 µM
B2 | 12.8 µM

Same assay, conditions: pH 9; 4 h

Protein | Proxy for plastic degradation
B1 | 5.4 µM
B2 | 11.8 µM

Same assay, conditions: pH 9; 5 h

Protein | Proxy for plastic degradation
B1 | 4.6 µM
B2 | 14.5 µM

Same assay, conditions: pH 9; 6 h

Protein | Proxy for plastic degradation
B1 | 4.9 µM
B2 | 15 µM
